Assay [1] has as its target cyEpCAM ECD Ag0066 (cyno). The assay can be described thus: SPR single-cycle.
For assay [2], the target named is T1, huEpCAM ECD Ag0065 (human) (UniProt P16422).
T1 sequence: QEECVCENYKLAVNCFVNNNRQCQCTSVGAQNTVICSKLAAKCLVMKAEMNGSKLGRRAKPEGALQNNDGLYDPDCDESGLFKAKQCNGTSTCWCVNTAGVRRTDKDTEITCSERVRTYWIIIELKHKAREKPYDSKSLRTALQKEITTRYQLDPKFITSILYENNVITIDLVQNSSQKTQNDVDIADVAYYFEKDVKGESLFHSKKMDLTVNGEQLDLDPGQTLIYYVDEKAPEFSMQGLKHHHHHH
The assay can be described thus: SPR single-cycle.

The target in assay [3] is cyEpCAM ECD Ag0066 (cyno). The assay can be described thus: SPR multi-cycle.
For assay [4], the target named is T1, huEpCAM ECD Ag0065 (human). The assay can be described thus: SPR multi-cycle.
The next assay has as its target Ab0223. Put plainly: BLI 1-pt +indinavir.

Ab0223, sequence (VH, as listed by the source limits assumed, form in doubt, chain 1 of 2): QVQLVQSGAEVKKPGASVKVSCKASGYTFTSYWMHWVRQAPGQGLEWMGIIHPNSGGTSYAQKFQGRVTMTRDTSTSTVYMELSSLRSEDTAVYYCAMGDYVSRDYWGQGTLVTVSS
Ab0223, sequence (VL, as listed by the source limits assumed, form in doubt, chain 2 of 2): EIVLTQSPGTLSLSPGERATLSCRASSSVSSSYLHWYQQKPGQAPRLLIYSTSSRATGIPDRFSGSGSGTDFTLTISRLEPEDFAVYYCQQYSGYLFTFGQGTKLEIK

B1: Ab1011 (antibody, V domains shown)
VH: EVQLVESGGGLVQPGGSLRLSCAASGFTFSNYWMNWVRQAPGKGLEWVAQIRVKSENFATHYADSVKGRFTISRDDSKSTVYLQMNSLRAEDTAVYYCTRYDGFSWGQGTLVTVSS
VL: DIQMTQSPSSLSASVGDRVTITCSASSSVSSGNFHWYQQKPGKAPKLLIYRTSNLASGVPSRFSGSGSGTDYTLTISSLQPEDFATYYCQQWSGYPYTFGQGTKVEIKR
As to B1, in assay [1], the Kd (in general, the concentration at which binding is half-saturated) is 9.9 nM. This counts as single-digit nanomolar.

B2: Ab1012 (antibody, V domains shown)
VH: EVQLVESGGGLVQPGGSLRLSCAASGFTFSSYWMNWVRQAPGKGLEWVAQIRVKSENFATHYADSVKGRFTISRDDSKSTVYLQMNSLRAEDTAVYYCTLYDGFSWGQGTLVTVSS
VL: DIQMTQSPSSLSASVGDRVTITCSASSSVSSGNFHWYQQKPGKAPKLLIYRTSNLASGVPSRFSGSGSGTDYTLTISSLQPEDFATYYCQQWSGYPYTFGQGTKVEIK
With B2, the Kd in assay [1] was 6.2 nM; in assay [2] it was 9.7 nM.

B3: Ab1017 (antibody, V domains shown)
VH: EVQLVESGGGLVQPGGSLRLSCAASGFTFSNYWMSWVRQAPGKGLEWVAQIRVKSENFATHYADSVKGRFTISRDDSKSTVYLQMNSLRAEDTAVYYCTLYDGFSWGQGTLVTVSS
VL: DIQMTQSPSSLSASVGDRVTITCSASSSVSSGNFHWYQQKPGKAPKLLIYRTSNLASGVPSRFSGSGSGTDYTLTISSLQPEDFATYYCQQWSGYPYTFGQGTKVEIK
On to B3, for which the figures for the Kd in assay [1] and in assay [2] were 4.5 nM and 7.6 nM, respectively.

B4: Ab1021 (antibody, V domains shown)
VH: EVQLVESGGGLVQPGGSLRLSCAASGFTFSNYWMNWVRQSPGKGLEWVAQIRVKSENFATHYADSVKGRFTISRDDSKSTVYLQMNSLRAEDTAVYYCTLYDGFSWGQGTLVTVSS
VL: DIQMTQSPSSLSASVGDRVTITCSASSSVSSGNFHWYQQKPGKAPKLLIYRTSNLASGVPSRFSGSGSGTDYTLTISSLQPEDFATYYCQQWSGYPYTFGQGTKVEIK
Regarding B4, the Kd in assay [1] turned out to be 2.3 nM; in assay [2] it was 3.1 nM.

B5: Ab1066 (antibody, V domains shown)
VH: EVQLVESGGGLVQPGGSLRLSCAASGFTFSNYWMNWVRQAPGKGLEWVAQIRVKSENFATHYADSVKGRFTISRDDSKSTVYLQMNSLRAEDTAVYYCTLYDAFSWGQGTLVTVSS
VL: DIQMTQSPSSLSASVGDRVTITCSASSSVSSGNFHWYQQKPGKAPKLLIYRTSNLASGVPSRFSGSGSGTDYTLTISSLQPEDFATYYCQQASGYPYTFGQGTKVEIK
Take B5: the Kd in assay [3] amounted to 3 nM; in assay [4], 5.7 nM.

B6: Ab1023 (antibody, V domains shown)
VH: EVQLVESGGGLVQPGGSLRLSCAASGFTFSNYWMNWVRQAPGKGLEWVAQIRVKYENFATHYADSVKGRFTISRDDSKSTVYLQMNSLRAEDTAVYYCTLYDGFSWGQGTLVTVSS
VL: DIQMTQSPSSLSASVGDRVTITCSASSSVSSGNFHWYQQKPGKAPKLLIYRTSNLASGVPSRFSGSGSGTDYTLTISSLQPEDFATYYCQQWSGYPYTFGQGTKVEIK
Turning to B6, the figures for the dissociation constant (Kd) in assay [1] and in assay [2] were 0.9 nM and 2 nM, respectively.

B7: Ab1016 (antibody, V domains shown)
VH: EVQLVESGGGLVQPGGSLRLSCAASGFTFSNYYMNWVRQAPGKGLEWVAQIRVKSENFATHYADSVKGRFTISRDDSKSTVYLQMNSLRAEDTAVYYCTLYDGFSWGQGTLVTVSS
VL: DIQMTQSPSSLSASVGDRVTITCSASSSVSSGNFHWYQQKPGKAPKLLIYRTSNLASGVPSRFSGSGSGTDYTLTISSLQPEDFATYYCQQWSGYPYTFGQGTKVEIK
Turning to B7, the Kd in assay [1] came to 7.7 nM; in assay [2] it was 7.2 nM.

B8: Ab0935 (antibody, V domains shown)
VH: EVQLVESGGGLVQPGGSLRLSCAASGFDFSSASIHWVRQAPGKGLEWVASISPYYGSTYYADSVKGRFTISADTSKNTAYLQMNSLRAEDTAVYYCARYYEWYKYDLYLGSLGFDYWGQGTLVTVSS
VL: DIQMTQSPSSLSASVGDRVTITCRASQSVSSAVAWYQQKPGKAPKLLIYSASSLYSGVPSRFSGSRSGTDFTLTISSLQPEDFATYYCQQGGYSLITFGQGTKVEIK
B8: in the assay with Ab0223, the Kd came out at 230 nM.

B9: Ab0939 (antibody, V domains shown)
VH: EVQLVESGGGLVQPGGSLRLSCAASGFDFSSYSIHWVRQAPGKGLEWVASISAYYGSTYYADSVKGRFTISADTSKNTAYLQMNSLRAEDTAVYYCARYYEWYKYDLYLGSLGFDYWGQGTLVTVSS
VL: DIQMTQSPSSLSASVGDRVTITCRASQSVSSAVAWYQQKPGKAPKLLIYSASSLYSGVPSRFSGSRSGTDFTLTISSLQPEDFATYYCQQGGYSLITFGQGTKVEIK
Molecule B9 returned a Kd with Ab0223 of 3.7 nM.

B10: Ab0942 (antibody, V domains shown)
VH: EVQLVESGGGLVQPGGSLRLSCAASGFDFSSYSIHWVRQAPGKGLEWVASISPYYGSTYYADSVKGRFTISADTSKNTAYLQMNSLRAEDTAVYYCARYYAWYKYDLYLGSLGFDYWGQGTLVTVSS
VL: DIQMTQSPSSLSASVGDRVTITCRASQSVSSAVAWYQQKPGKAPKLLIYSASSLYSGVPSRFSGSRSGTDFTLTISSLQPEDFATYYCQQGGYSLITFGQGTKVEIK
Molecule B10 displayed a Kd with Ab0223 of 210 nM.

B11: Ab0944 (antibody, V domains shown)
VH: EVQLVESGGGLVQPGGSLRLSCAASGFDFSSYSIHWVRQAPGKGLEWVASISPYYGSTYYADSVKGRFTISADTSKNTAYLQMNSLRAEDTAVYYCARYYEWYKYALYLGSLGFDYWGQGTLVTVSS
VL: DIQMTQSPSSLSASVGDRVTITCRASQSVSSAVAWYQQKPGKAPKLLIYSASSLYSGVPSRFSGSRSGTDFTLTISSLQPEDFATYYCQQGGYSLITFGQGTKVEIK
For the molecule B11, the Kd with Ab0223 amounted to 7.1 nM. Against the preceding molecule, the Kd is about 30-fold lower.

B12: Ab0936 (antibody, V domains shown)
VH: EVQLVESGGGLVQPGGSLRLSCAASGFDFSSYSIHWVRQAPGKGLEWVAAISPYYGSTYYADSVKGRFTISADTSKNTAYLQMNSLRAEDTAVYYCARYYEWYKYDLYLGSLGFDYWGQGTLVTVSS
VL: DIQMTQSPSSLSASVGDRVTITCRASQSVSSAVAWYQQKPGKAPKLLIYSASSLYSGVPSRFSGSRSGTDFTLTISSLQPEDFATYYCQQGGYSLITFGQGTKVEIK
As to B12, the Kd with Ab0223 was under 1 nM.

B13: Ab0943 (antibody, V domains shown)
VH: EVQLVESGGGLVQPGGSLRLSCAASGFDFSSYSIHWVRQAPGKGLEWVASISPYYGSTYYADSVKGRFTISADTSKNTAYLQMNSLRAEDTAVYYCARYYEWYAYDLYLGSLGFDYWGQGTLVTVSS
VL: DIQMTQSPSSLSASVGDRVTITCRASQSVSSAVAWYQQKPGKAPKLLIYSASSLYSGVPSRFSGSRSGTDFTLTISSLQPEDFATYYCQQGGYSLITFGQGTKVEIK
B13: the Kd with Ab0223 is 130 nM.

B14: Ab0947 (antibody, V domains shown)
VH: EVQLVESGGGLVQPGGSLRLSCAASGFDFSSYSIHWVRQAPGKGLEWVASISPYYGSTYYADSVKGRFTISADTSKNTAYLQMNSLRAEDTAVYYCARYYEWYKYDLYLGSLGFAYWGQGTLVTVSS
VL: DIQMTQSPSSLSASVGDRVTITCRASQSVSSAVAWYQQKPGKAPKLLIYSASSLYSGVPSRFSGSRSGTDFTLTISSLQPEDFATYYCQQGGYSLITFGQGTKVEIK
Regarding B14, the Kd in the assay with Ab0223 is 52 nM. This Kd lies about 2.5-fold lower than the previous one.

B15: Ab0946 (antibody, V domains shown)
VH: EVQLVESGGGLVQPGGSLRLSCAASGFDFSSYSIHWVRQAPGKGLEWVASISPYYGSTYYADSVKGRFTISADTSKNTAYLQMNSLRAEDTAVYYCARYYEWYKYDLYLGSLAFDYWGQGTLVTVSS
VL: DIQMTQSPSSLSASVGDRVTITCRASQSVSSAVAWYQQKPGKAPKLLIYSASSLYSGVPSRFSGSRSGTDFTLTISSLQPEDFATYYCQQGGYSLITFGQGTKVEIK
Take B15: in the assay with Ab0223, the Kd is 50 nM. This Kd and that of the molecule before are within 1.5-fold of each other.

B16: Ab0948 (antibody, V domains shown)
VH: EVQLVESGGGLVQPGGSLRLSCAASGFDFSSYSIHWVRQAPGKGLEWVASISPYYGSTYYADSVKGRFTISADTSKNTAYLQMNSLRAEDTAVYYCARYYEWYKYDLYLGSLGFDAWGQGTLVTVSS
VL: DIQMTQSPSSLSASVGDRVTITCRASQSVSSAVAWYQQKPGKAPKLLIYSASSLYSGVPSRFSGSRSGTDFTLTISSLQPEDFATYYCQQGGYSLITFGQGTKVEIK
For B16, the Kd in the assay with Ab0223 was 7.3 nM. Against the preceding molecule, the Kd is about 6.8-fold lower.

B17: Ab0938 (antibody, V domains shown)
VH: EVQLVESGGGLVQPGGSLRLSCAASGFDFSSYSIHWVRQAPGKGLEWVASIAPYYGSTYYADSVKGRFTISADTSKNTAYLQMNSLRAEDTAVYYCARYYEWYKYDLYLGSLGFDYWGQGTLVTVSS
VL: DIQMTQSPSSLSASVGDRVTITCRASQSVSSAVAWYQQKPGKAPKLLIYSASSLYSGVPSRFSGSRSGTDFTLTISSLQPEDFATYYCQQGGYSLITFGQGTKVEIK
B17 yielded a Kd with Ab0223 of 310 nM.

B18: Ab0941 (antibody, V domains shown)
VH: EVQLVESGGGLVQPGGSLRLSCAASGFDFSSYSIHWVRQAPGKGLEWVASISPYYGATYYADSVKGRFTISADTSKNTAYLQMNSLRAEDTAVYYCARYYEWYKYDLYLGSLGFDYWGQGTLVTVSS
VL: DIQMTQSPSSLSASVGDRVTITCRASQSVSSAVAWYQQKPGKAPKLLIYSASSLYSGVPSRFSGSRSGTDFTLTISSLQPEDFATYYCQQGGYSLITFGQGTKVEIK
The molecule B18 gave a Kd with Ab0223 of 3.7 nM.

B19: Ab0940 (antibody, V domains shown)
VH: EVQLVESGGGLVQPGGSLRLSCAASGFDFSSYSIHWVRQAPGKGLEWVASISPYYASTYYADSVKGRFTISADTSKNTAYLQMNSLRAEDTAVYYCARYYEWYKYDLYLGSLGFDYWGQGTLVTVSS
VL: DIQMTQSPSSLSASVGDRVTITCRASQSVSSAVAWYQQKPGKAPKLLIYSASSLYSGVPSRFSGSRSGTDFTLTISSLQPEDFATYYCQQGGYSLITFGQGTKVEIK
In turn, B19 returned a Kd in the assay with Ab0223 of 10 nM.
